# B1: TPR t1 (parent)
# chain: GACCAAUCUGCCCUCAGAGCUCGAGAACAUCUUCGGAUGCAGAGGAGGCAGGCUUCGGUGGCGCGAUAGCGCCAACGUCCUCAACCUCCAAUGCAUCCCACCACAUGAUGAUGCCUGAAGAGCCUUGGUUUUUUG
# Variants of: B1
# Experiment: polymerase ribozyme fitness, log enrichment relative to wild type (log ratio); higher = more active; in vitro selection for triplet polymerase activity
# In short: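 Fitness compares each genotype's enrichment to that of the wild type on a logarithmic scale, averaging replicates with inverse-variance weights. The logarithm is base 2. Enrichment came from Illumina sequencing of input and output libraries after one triplicate round of in vitro selection, which included frozen incubation at −7 °C, of PCR-built, transcribed mutant libraries of each subunit of a heterodimeric triplet polymerase ribozyme. Only genotypes with ≥10 input reads and ≥1 read per output were kept.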
row,Variant,polymerase ribozyme fitness (log ratio)
1,A2C G71A,-2.36
2,A2C G71A C115A C123U,-2.71
3,A2C G71U,-2.08
4,A2C G71U G93A U109A G120C,-6.66
5,A2C G77U,-2.28
6,A2C G110C,-6.21
7,A2C G128U,-2.55
8,A2C U9G C20A G71A A121U,-3.49
9,A2C U38G C79G A121C,-2.95
10,A2C U87G,-1.65
11,A2G A5C G60A A74U C86U G135U,-1.91
12,A2G A5G C20A A46C U112G G122U U129C,-5.3
13,A2G A5G U7G U21G A43C G69U C88A C101U U129A,-3.72
14,A2G A18C C115A C123U,-1.44
15,A2G A18G G19C A83C U92A C114A G128C,-3.26
16,A2G A37C A111G,-1.49
17,A2G A43G,-2.05
18,A2G A46C,-0.998
19,A2G A50C A75G G113U,-3.77
20,A2G A91U,-1.93
21,A2G C3G C31G A43U G60U C94U C114G,-7.19
22,A2G C4G C8G G47U U54C,-3.05
23,A2G C4G C8G G47U U54C C72A,-2.53
24,A2G C4G G47A G48A C123A,-3.22

row,Variant,polymerase ribozyme fitness (log ratio)
1,A2G C8G A121U U129G,0.138
2,A2G C8G C70G,-2.83
3,A2G C8U U87A C89U C123A,1.08
4,A2G C11A C49G G71U C85A U92C,-2.64
5,A2G C12U A29U G69C A75G C94A C123U,-4.95
6,A2G C12U A75U A111G G113A,-1.23
7,A2G C12U G17C U78C C86G,-4.66
8,A2G C12U G47A G63U G113U,-4.51
9,A2G C13G C123G,1.11
10,A2G C13U C53U C72G,-0.398
11,A2G C15U A37U C101G C104A,-5.07
12,A2G C22U G61A A75U,-4.04
13,A2G C28U C70U G110U,-3.19
14,A2G C28U G93C C124G U133G,-2.71
15,A2G C34A U55A C70G U112C,-5.23
16,A2G C34U,-4.37
17,A2G C40U U78A C86U G117A,-3.78
18,A2G C62A C104U,-0.429
19,A2G C64U C89G U112A,-1.2
20,A2G C73U,-0.754
21,A2G C79A,-0.844
22,A2G C97U G113U C114G,-3.04
23,A2G C114A C124A,-0.647
24,A2G C115A,-0.495

row,Variant,polymerase ribozyme fitness (log ratio)
1,A2G G35C,-3.63
2,A2G G39U,-1.18
3,A2G G42A U54G C80A U112A,-6.02
4,A2G G44C C62A C97U C115U G135A,-5.32
5,A2G G52A C99U,-3.53
6,A2G G52C G60U,0.0795
7,A2G G52U A91U A95C,-3.47
8,A2G G57A C104A,-3.56
9,A2G G57C U59G A100U U106C,-0.973
10,A2G G69A C89G G110U,-6
11,A2G G77A C80A C124A,-0.514
12,A2G G93A,-0.719
13,A2G G110A C124A,-0.428
14,A2G G113A,-1.6
15,A2G U9G U21C G128A,-4.35
16,A2G U9G U106G U112C U130A,-0.197
17,A2G U14C C70U,-2.68
18,A2G U32C C40G C49A,-1.76
19,A2G U54A G60C U106G,-2.29
20,A2G U59G G122A U129C,-0.941
21,A2G U78A,0.0128
22,A2G U78A G128A,-2.62
23,A2U A5C,-2.09
24,A2U A5C C13U G48A G69A,-5.8

row,Variant,polymerase ribozyme fitness (log ratio)
1,A2U A5C C62A G93C,-5.08
2,A2U A5C G69A C86U,-6.09
3,A2U A6G U92C A121C,-0.755
4,A2U A16G C72A,-3.41
5,A2U A18G U32C G93U C124G U133G,-2.99
6,A2U A37C,-3.02
7,A2U A37U U54A G69U U78G A105G,-3.36
8,A2U A43G G45A C72G A84G A111U,-6.25
9,A2U A50G C73U U78A,-3.42
10,A2U A83G,-3.47
11,A2U C4A A43G G47C A68G G113A C124U,-6.42
12,A2U C8G,-0.639
13,A2U C8U A41C C56G G77U G122A,-2.93
14,A2U C11A G51A A66G G69U C98U,-4.43
15,A2U C11G C28U G61A,-2.82
16,A2U C11U G57U A91U,-4.18
17,A2U C11U U21A,-1.96
18,A2U C12A,-3.25
19,A2U C12A U55G G61A C102A C104U,-4.56
20,A2U C12G,-1.36
21,A2U C13A,-3.76
22,A2U C13U A41G A43U C49U U92C G93C C115U U131G U132A,-4.38
23,A2U C13U C72G C114U,-3.41
24,A2U C20U,-3.71

row,Variant,polymerase ribozyme fitness (log ratio)
1,A2U C22G U33C C34A,-5.51
2,A2U C40A,-3.29
3,A2U C49A,-2.86
4,A2U C56A,-2.33
5,A2U C56A C64U G120C,-3.86
6,A2U C62U,-2.96
7,A2U C72A,-2.16
8,A2U C72G C101G C124A,-2.28
9,A2U C79U C104A,-4.26
10,A2U C94U C104U,-2.44
11,A2U C98U,-3.18
12,A2U C104A C124U U130A,-2.07
13,A2U C114U,-4.35
14,A2U G23C G39A A50U G61C A91C G93C A111U,-6
15,A2U G35U,-6.73
16,A2U G36U A41U U54G,-6.42
17,A2U G45U,-3.96
18,A2U G47A C123A,-2.56
19,A2U G51C G69A A121G U132C,-6.81
20,A2U G57C C82U C98U,-3.78
21,A2U G60A C79U C80A A121G,-5.43
22,A2U G63A A84U C86U,-3.92
23,A2U G63A C86A,-4.44
24,A2U G65A C80G A84G C115U G117A G127U,-5.92

row,Variant,polymerase ribozyme fitness (log ratio)
1,A2U G77C U116A C124A U130C,-0.208
2,A2U G120A,-0.642
3,A2U U7A A46C G48A C82A G127C,-4.28
4,A2U U9C C12A G51U C53A U55A G61U U78C G127U,-6.49
5,A2U U9G,-1.32
6,A2U U21A C49U,-4.09
7,A2U U32C C79A,-4.3
8,A2U U32G G60U G69A U92A C114A U116A C124G,-6.22
9,A2U U54A C72A C101G U129A U130A,-2.15
10,A2U U59C C62G C94U C123A U125G,-6.19
11,A2U U131G,-2.07
12,C3A,-1.22
13,C3A A5C C115A,1.15
14,C3A A5G C12A G63U A68G C115G G122A U130G,-6.94
15,C3A A5U A29G U116C,-2.92
16,C3A A5U G36C G47C A75U G77A A105G U106A C123U U130C,-2.36
17,C3A A6G C13U C15G U59C,-3.21
18,C3A A16U C73G,-3.81
19,C3A A18G G19C A90U C123U U129G,-0.538
20,C3A A41U C70A A91C U112G U125G G127U,-4.59
21,C3A A74C,-2.99
22,C3A A83C C97U G110A,-3.93
23,C3A A105G,-4.78
24,C3A A111C G128U U129A,-1.89

row,Variant,polymerase ribozyme fitness (log ratio)
1,C3A C4G G10A G61A C123G,0.689
2,C3A C8A C40G G61U A100C,-2.95
3,C3A C8U,-1.3
4,C3A C11U C99U,-4.11
5,C3A C12G A26U U30G G65C A121C U130C,-6.48
6,C3A C12G C56G C123U,-0.749
7,C3A C12U,-0.986
8,C3A C12U U54A G69U G77C,-3.81
9,C3A C13U C34A G58C G135U,-4.09
10,C3A C15A,-3.67
11,C3A C22G A37G A111G,-4.63
12,C3A C28U G57A G69U C82U,-3.79
13,C3A C40A G47A G60A A75U C86U C97U C123A U132A,-1.07
14,C3A C40A G93U G110U,-3.31
15,C3A C40G,-2.2
16,C3A C56A G71A G127U,-3.57
17,C3A C62U A105G,-4.05
18,C3A C62U G93C,-2.92
19,C3A C72U C94G,-3.51
20,C3A C76G G93A C115G,-5.76
21,C3A C79A G120U G128A,-3.06
22,C3A C97A C114U,-5.53
23,C3A G10A A75G C86G C98U G122A,-2.58

# Reference: the RNAGym collection of RNA variant scans (doi:10.1073/pnas.2313332121)
